Reference: PMC11748629, “Unidirectional MCM translocation away from ORC drives origin licensing” (Nature Communications, 2025)
Blank lines part the entries; values can stand above or below the substance they belong to.

How the values were obtained:
Assay in all cases: negative stain EM with 2D averaging; DH loading reaction in solution, no downstream purification: 10 nM MH-NCP-ARS1-NCP DNA, 20 nM ORC, 30 nM Cdc6, 0.5 mM ATP, 20 nM MCM-Cdt1; 25 mM HEPES pH 7.6, 100 mM potassium chloride, 10 mM magnesium acetate, 1 mM DTT; 30 °C, 30 min; DH counted as % of averageable MCM particles, N = 3; assemblies form on DNA
[1] = molecular target: MCM-Cdt1 complex with Mcm3 R542A (Arginine Finger variant) (Saccharomyces cerevisiae) (UniProt P29469)
[2] = molecular target: MCM-Cdt1 complex with Mcm4 R701A (Arginine Finger variant) (Saccharomyces cerevisiae) (UniProt P29469)
[3] = molecular target: MCM-Cdt1 complex with Mcm7 R593A (Arginine Finger variant) (Saccharomyces cerevisiae) (UniProt P29469)
[4] = molecular target: MCM-Cdt1 complex, wild type (expressed in yeast) (Saccharomyces cerevisiae) (UniProt P29469)
[5] = molecular target: MCM-Cdt1 complex with Mcm2 R676A (Arginine Finger variant) (Saccharomyces cerevisiae) (UniProt P29469)
[6] = molecular target: MCM-Cdt1 complex with Mcm6 R708A (Arginine Finger variant) (Saccharomyces cerevisiae) (UniProt P29469)

Substance: MCM-Cdt1 complex with Mcm4 R701A (Arginine Finger variant), P29469 1-868; P24279 1-971; P30665 1-933; P29496 1-775; P53091 1-1017; P38132 1-845; P47112 1-604
- DH as % of averageable MCM particles [2]: 22.4%

Substance: MCM-Cdt1 complex, wild type (expressed in yeast), P29469 1-868; P24279 1-971; P30665 1-933; P29496 1-775; P53091 1-1017; P38132 1-845; P47112 1-604
- DH as % of averageable MCM particles [4]: 56.5%

Substance: MCM-Cdt1 complex with Mcm2 R676A (Arginine Finger variant), P29469 1-868; P24279 1-971; P30665 1-933; P29496 1-775; P53091 1-1017; P38132 1-845; P47112 1-604
- DH as % of averageable MCM particles [5]: 0.5%

Substance: MCM-Cdt1 complex with Mcm6 R708A (Arginine Finger variant), P29469 1-868; P24279 1-971; P30665 1-933; P29496 1-775; P53091 1-1017; P38132 1-845; P47112 1-604
- DH as % of averageable MCM particles [6]: 2.4%

More lines, now with the values ahead:

- DH as % of averageable MCM particles [1]: 13.9%
Substance: MCM-Cdt1 complex with Mcm3 R542A (Arginine Finger variant), P29469 1-868; P24279 1-971; P30665 1-933; P29496 1-775; P53091 1-1017; P38132 1-845; P47112 1-604

- DH as % of averageable MCM particles [3]: 5.3%
Substance: MCM-Cdt1 complex with Mcm7 R593A (Arginine Finger variant), P29469 1-868; P24279 1-971; P30665 1-933; P29496 1-775; P53091 1-1017; P38132 1-845; P47112 1-604
